Data taken from patent publication US20190015483A1 (CSL BEHRING RECOMBINANT FACILITY, published 2019).
Where two headings read alike, the source gives them in different places.

Key:
[1] = biological target: T1, recombinant Factor VIII (CSL627, rVIII-SingleChain) (Homo sapiens (Human), UniProt P00451 20-2351); test: SPR, anti-His capture
T1 construct: also called FVIII
T1 sequence: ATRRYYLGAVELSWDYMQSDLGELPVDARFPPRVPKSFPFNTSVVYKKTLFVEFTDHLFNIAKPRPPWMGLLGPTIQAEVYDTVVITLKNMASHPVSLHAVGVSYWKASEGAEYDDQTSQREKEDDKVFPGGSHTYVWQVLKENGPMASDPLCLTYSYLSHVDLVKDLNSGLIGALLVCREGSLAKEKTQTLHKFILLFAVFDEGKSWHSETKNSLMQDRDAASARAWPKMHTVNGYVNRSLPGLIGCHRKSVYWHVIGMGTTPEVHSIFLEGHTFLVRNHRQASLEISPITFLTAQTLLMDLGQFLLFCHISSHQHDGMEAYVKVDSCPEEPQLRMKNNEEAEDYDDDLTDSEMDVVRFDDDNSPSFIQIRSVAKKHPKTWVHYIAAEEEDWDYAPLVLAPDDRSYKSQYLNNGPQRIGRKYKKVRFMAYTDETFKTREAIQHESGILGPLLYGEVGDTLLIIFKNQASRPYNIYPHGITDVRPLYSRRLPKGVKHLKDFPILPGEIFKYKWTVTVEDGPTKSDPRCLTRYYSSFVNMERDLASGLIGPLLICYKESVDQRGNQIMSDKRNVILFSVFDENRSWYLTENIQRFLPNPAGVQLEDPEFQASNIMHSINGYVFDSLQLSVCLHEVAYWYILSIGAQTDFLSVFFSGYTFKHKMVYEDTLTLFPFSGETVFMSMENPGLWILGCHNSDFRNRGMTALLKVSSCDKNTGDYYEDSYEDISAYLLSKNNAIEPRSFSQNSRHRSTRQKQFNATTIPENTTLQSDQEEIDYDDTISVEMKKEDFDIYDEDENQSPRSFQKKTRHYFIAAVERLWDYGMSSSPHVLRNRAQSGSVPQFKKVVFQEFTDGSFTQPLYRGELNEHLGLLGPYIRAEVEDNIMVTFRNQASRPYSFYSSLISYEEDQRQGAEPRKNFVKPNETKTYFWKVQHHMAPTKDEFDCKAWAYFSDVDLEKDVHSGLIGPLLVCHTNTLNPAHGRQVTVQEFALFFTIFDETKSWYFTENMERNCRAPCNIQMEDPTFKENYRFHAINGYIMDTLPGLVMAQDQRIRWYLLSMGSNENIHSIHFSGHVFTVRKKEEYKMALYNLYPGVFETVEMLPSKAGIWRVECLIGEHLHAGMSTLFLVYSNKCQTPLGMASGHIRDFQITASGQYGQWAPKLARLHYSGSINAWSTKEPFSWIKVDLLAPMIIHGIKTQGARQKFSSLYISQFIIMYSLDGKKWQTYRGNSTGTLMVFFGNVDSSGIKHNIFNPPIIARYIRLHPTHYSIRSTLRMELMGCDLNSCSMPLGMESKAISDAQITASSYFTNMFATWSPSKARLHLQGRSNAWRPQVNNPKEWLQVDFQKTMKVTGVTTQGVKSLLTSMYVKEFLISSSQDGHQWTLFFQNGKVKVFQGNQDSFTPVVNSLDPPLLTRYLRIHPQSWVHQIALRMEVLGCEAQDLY
Description: Binding kinetics were investigated by surface plasmon resonance using a Biacore 4000 biosensor at 37° C. Each mutant was captured from cell culture medium to a density of 40-150 RU on a CM-5 sensor chip pre-immobilised with anti-His antibody (14,000 RU). In an initial screening study, FVIII was injected over the captured mutants for 5 minutes at 1 nM and dissociation monitored for 5 minutes.
All sensorgrams were double referenced by subtraction of signals from a reference spot (containing only immobilised anti His antibody) and from a blank injection. Binding kinetics were determined by fitting the double referenced sensorgrams to a 1:1 kinetic model.

[2] = biological target: T1, recombinant Factor VIII (CSL627, …); test: SPR, anti-His capture; remark: listed apart in the source
In short: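 Capture 40-150 RU mutant from medium on anti-His (14,000 RU) CM-5; 1 nM FVIII, 5 min on / 5 min off; reference spot + blank subtracted; 1:1 fit.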

B1: Hu-vWF[764-1270]-8His S764A/S766Y (other)
chain: ALYCRPPMVKLVCPADNLRAEGLECTKTCQNYDLECMSMGCVSGCLCPPGMVRHENRCVALERCPCFHQGKEYAPGETVKIGCNTCVCRDRKWNCTDHVCDATCSTIGMAHYLTFDGLKYLFPGECQYVLVQDYCGSNPGTFRILVGNKGCSHPSVKCKKRVTILVEGGEIELFDGEVNVKRPMKDETHFEVVESGRYIILLLGKALSVVWDRHLSISVVLKQTYQEKVCGLCGNFDGIQNNDLTSSNLQVEEDPVDFGNSWKVSSQCADTRKVPLDSSPATCHNNIMKQTMVDSSCRILTSDVFQDCNKLVDPEPYLDVCIYDTCSCESIGDCACFCDTIAAYAHVCAQHGKVVTWRTATLCPQSCEERNLRENGYECEWRYNSCAPACQVTCQHPEPLACPVQCVEGCHAHCPPGKILDELLQTCVDPEDCPVCEVAGRRFASGKKVTLNPSDPEHCQICHCDVVNLTCEACQEPGGLVVPPTDAPVSPTTLYVEDISEPPLHDFHHHHHHHH
[1]
  Kd: 2.42 pM
  koff: 7.21e-05 s⁻¹
  kon: 2.98e+07 M⁻¹ s⁻¹

B2: Hu-vWF[764-1270]-8His S764D/S766Y (other)
chain: DLYCRPPMVKLVCPADNLRAEGLECTKTCQNYDLECMSMGCVSGCLCPPGMVRHENRCVALERCPCFHQGKEYAPGETVKIGCNTCVCRDRKWNCTDHVCDATCSTIGMAHYLTFDGLKYLFPGECQYVLVQDYCGSNPGTFRILVGNKGCSHPSVKCKKRVTILVEGGEIELFDGEVNVKRPMKDETHFEVVESGRYIILLLGKALSVVWDRHLSISVVLKQTYQEKVCGLCGNFDGIQNNDLTSSNLQVEEDPVDFGNSWKVSSQCADTRKVPLDSSPATCHNNIMKQTMVDSSCRILTSDVFQDCNKLVDPEPYLDVCIYDTCSCESIGDCACFCDTIAAYAHVCAQHGKVVTWRTATLCPQSCEERNLRENGYECEWRYNSCAPACQVTCQHPEPLACPVQCVEGCHAHCPPGKILDELLQTCVDPEDCPVCEVAGRRFASGKKVTLNPSDPEHCQICHCDVVNLTCEACQEPGGLVVPPTDAPVSPTTLYVEDISEPPLHDFHHHHHHHH
[1]
  Kd: 3.12 pM
  koff: 0.000118 s⁻¹
  kon: 3.78e+07 M⁻¹ s⁻¹

B3: Hu-vWF[764-1270]-8His S764E/S766Y (other)
chain: ELYCRPPMVKLVCPADNLRAEGLECTKTCQNYDLECMSMGCVSGCLCPPGMVRHENRCVALERCPCFHQGKEYAPGETVKIGCNTCVCRDRKWNCTDHVCDATCSTIGMAHYLTFDGLKYLFPGECQYVLVQDYCGSNPGTFRILVGNKGCSHPSVKCKKRVTILVEGGEIELFDGEVNVKRPMKDETHFEVVESGRYIILLLGKALSVVWDRHLSISVVLKQTYQEKVCGLCGNFDGIQNNDLTSSNLQVEEDPVDFGNSWKVSSQCADTRKVPLDSSPATCHNNIMKQTMVDSSCRILTSDVFQDCNKLVDPEPYLDVCIYDTCSCESIGDCACFCDTIAAYAHVCAQHGKVVTWRTATLCPQSCEERNLRENGYECEWRYNSCAPACQVTCQHPEPLACPVQCVEGCHAHCPPGKILDELLQTCVDPEDCPVCEVAGRRFASGKKVTLNPSDPEHCQICHCDVVNLTCEACQEPGGLVVPPTDAPVSPTTLYVEDISEPPLHDFHHHHHHHH
[1]
  Kd: 3.87 pM
  koff: 7.64e-05 s⁻¹
  kon: 1.97e+07 M⁻¹ s⁻¹

B4: Hu-vWF[764-1270]-8His S764F/S766Y (other)
chain: FLYCRPPMVKLVCPADNLRAEGLECTKTCQNYDLECMSMGCVSGCLCPPGMVRHENRCVALERCPCFHQGKEYAPGETVKIGCNTCVCRDRKWNCTDHVCDATCSTIGMAHYLTFDGLKYLFPGECQYVLVQDYCGSNPGTFRILVGNKGCSHPSVKCKKRVTILVEGGEIELFDGEVNVKRPMKDETHFEVVESGRYIILLLGKALSVVWDRHLSISVVLKQTYQEKVCGLCGNFDGIQNNDLTSSNLQVEEDPVDFGNSWKVSSQCADTRKVPLDSSPATCHNNIMKQTMVDSSCRILTSDVFQDCNKLVDPEPYLDVCIYDTCSCESIGDCACFCDTIAAYAHVCAQHGKVVTWRTATLCPQSCEERNLRENGYECEWRYNSCAPACQVTCQHPEPLACPVQCVEGCHAHCPPGKILDELLQTCVDPEDCPVCEVAGRRFASGKKVTLNPSDPEHCQICHCDVVNLTCEACQEPGGLVVPPTDAPVSPTTLYVEDISEPPLHDFHHHHHHHH
[1]
  Kd: 12.2 pM
  koff: 9.36e-05 s⁻¹
  kon: 7.68e+06 M⁻¹ s⁻¹

B5: Hu-vWF[764-1270]-8His S764G/S766Y (other)
chain: GLYCRPPMVKLVCPADNLRAEGLECTKTCQNYDLECMSMGCVSGCLCPPGMVRHENRCVALERCPCFHQGKEYAPGETVKIGCNTCVCRDRKWNCTDHVCDATCSTIGMAHYLTFDGLKYLFPGECQYVLVQDYCGSNPGTFRILVGNKGCSHPSVKCKKRVTILVEGGEIELFDGEVNVKRPMKDETHFEVVESGRYIILLLGKALSVVWDRHLSISVVLKQTYQEKVCGLCGNFDGIQNNDLTSSNLQVEEDPVDFGNSWKVSSQCADTRKVPLDSSPATCHNNIMKQTMVDSSCRILTSDVFQDCNKLVDPEPYLDVCIYDTCSCESIGDCACFCDTIAAYAHVCAQHGKVVTWRTATLCPQSCEERNLRENGYECEWRYNSCAPACQVTCQHPEPLACPVQCVEGCHAHCPPGKILDELLQTCVDPEDCPVCEVAGRRFASGKKVTLNPSDPEHCQICHCDVVNLTCEACQEPGGLVVPPTDAPVSPTTLYVEDISEPPLHDFHHHHHHHH
[1]
  Kd: 1.96 pM
  koff: 2.69e-05 s⁻¹
  kon: 1.37e+07 M⁻¹ s⁻¹

B6: Hu-vWF[764-1270]-8His S764H/S766Y (other)
chain: HLYCRPPMVKLVCPADNLRAEGLECTKTCQNYDLECMSMGCVSGCLCPPGMVRHENRCVALERCPCFHQGKEYAPGETVKIGCNTCVCRDRKWNCTDHVCDATCSTIGMAHYLTFDGLKYLFPGECQYVLVQDYCGSNPGTFRILVGNKGCSHPSVKCKKRVTILVEGGEIELFDGEVNVKRPMKDETHFEVVESGRYIILLLGKALSVVWDRHLSISVVLKQTYQEKVCGLCGNFDGIQNNDLTSSNLQVEEDPVDFGNSWKVSSQCADTRKVPLDSSPATCHNNIMKQTMVDSSCRILTSDVFQDCNKLVDPEPYLDVCIYDTCSCESIGDCACFCDTIAAYAHVCAQHGKVVTWRTATLCPQSCEERNLRENGYECEWRYNSCAPACQVTCQHPEPLACPVQCVEGCHAHCPPGKILDELLQTCVDPEDCPVCEVAGRRFASGKKVTLNPSDPEHCQICHCDVVNLTCEACQEPGGLVVPPTDAPVSPTTLYVEDISEPPLHDFHHHHHHHH
[1]
  Kd: 6.39 pM
  koff: 0.000292 s⁻¹
  kon: 4.56e+07 M⁻¹ s⁻¹

B7: Hu-vWF[764-1270]-8His S766Y-K773Y (other)
chain: SLYCRPPMVYLVCPADNLRAEGLECTKTCQNYDLECMSMGCVSGCLCPPGMVRHENRCVALERCPCFHQGKEYAPGETVKIGCNTCVCRDRKWNCTDHVCDATCSTIGMAHYLTFDGLKYLFPGECQYVLVQDYCGSNPGTFRILVGNKGCSHPSVKCKKRVTILVEGGEIELFDGEVNVKRPMKDETHFEVVESGRYIILLLGKALSVVWDRHLSISVVLKQTYQEKVCGLCGNFDGIQNNDLTSSNLQVEEDPVDFGNSWKVSSQCADTRKVPLDSSPATCHNNIMKQTMVDSSCRILTSDVFQDCNKLVDPEPYLDVCIYDTCSCESIGDCACFCDTIAAYAHVCAQHGKVVTWRTATLCPQSCEERNLRENGYECEWRYNSCAPACQVTCQHPEPLACPVQCVEGCHAHCPPGKILDELLQTCVDPEDCPVCEVAGRRFASGKKVTLNPSDPEHCQICHCDVVNLTCEACQEPGGLVVPPTDAPVSPTTLYVEDISEPPLHDFHHHHHHHH
[2]
  Kd: 180 pM
  koff: 0.00404 s⁻¹
  kon: 2.24e+07 M⁻¹ s⁻¹
